Consider 19 molecules from patent US20260250320A1, “LIPIDATED PEPTIDE INHIBITORS OF INTERLEUKIN-23 RECEPTOR” (Janssen Pharmaceutica NV, priority 2023, published 2026).

First the molecules themselves.
B1: SEQ ID NO: 82 (peptide)
peptide: {HOC18-γGlu-PEG2″-PEG2″}-[dR][Pen]NT[Trp(7-Me)]K(Ac)[Pen][AEF][2Nal][Thp]K(NMecPEG3a)N[3Pal][Sar]-NH2
modifications: disulfide 2-7 (inferred); not fully specified; printed as HOC18gEPEG2PEG2CO-r-Pen(3)-N-T-7MeW-K(Ac)-Pen(3)-AEF-2Nal-THP-K(NMecPEG3a)-N-3Pya-Sar-CONH2; reading uncertain
B2: SEQ ID NO: 74 (peptide)
peptide: Ac-[dR][Pen]K([PEG2″-PEG2″-γGlu-C18OH])T[Trp(7-Me)]K(Ac)[Pen][AEF][2Nal][Thp]K(NMecPEG3a)N[3Pal][Sar]-NH2
modifications: disulfide 2-7 (inferred); reading uncertain; also: printed as MeCO-r-Pen(3)-K(PEG2PEG2gEC18OH)-T-7MeW-K(Ac)-Pen(3)-AEF-2Nal-THP-K(NMecPEG3a)-N-3Pya-Sar-CONH2
B3: SEQ ID NO: 103 (peptide)
peptide: XNTXXXXXXENXXK
modifications: MeCO-Pen(3)-N-T-7MeW-K(Ac)-Pen(3)-AEF-2Nal-THP-E-N-3Pya-Sar-K(PEG12gEC20OH)-CONH2
B4: SEQ ID NO: 84 (peptide)
peptide: {HOC18-γGlu-PEG2′-PEG2′}-[dR][Pen]NT[Trp(7-Me)]K(NMecPEG3a)[Pen][AEF][2Nal][Thp]EN[3Pal][Sar]-NH2
modifications: disulfide 2-7 (inferred); not fully specified; printed as HOC18gEPEG2PEG2CO-r-Pen(3)-N-T-7MeW-K(NMecPEG3a)-Pen(3)-AEF-2Nal-THP-E-N-3Pya-Sar-CONH2; reading uncertain
B5: SEQ ID NO: 104 (peptide)
peptide: Ac-[dK]([PEG12′-γGlu-C20OH])[Pen]NT[Trp(7-Me)]K(Ac)[Pen][AEF][2Nal][Thp]K(Ac)N[3Pal]X-NH2
modifications: disulfide 2-7 (inferred); not fully specified (residue 14); printed as MeCO-k(PEG12gEC20OH)-Pen(3)-N-T-7MeW-K(Ac)-Pen(3)-AEF-2Nal-THP-K(Ac)-N-3Pya-Ser-CONH2
B6: SEQ ID NO: 116 (peptide)
peptide: {HOC18-γGlu-PEG12′}-[Pen]NTK(Ac)[Pen][AEF][2Nal][Thp]EN[3Pal][Sar]-NH2
modifications: disulfide 1-5 (inferred); not fully specified; printed as HOC18gEPEG12CO-Pen(3)-N-T-K(Ac)-Pen(3)-AEF-2Nal-THP-E-N-3Pya-Sar-CONH2
B7: SEQ ID NO: 76 (peptide)
peptide: Ac-[dR][Pen]K([PEG2″-PEG2″-γGlu-C18OH])T[Trp(7-Me)]K(NMecPEG3a)[Pen][AEF][2Nal][Thp]EN[3Pal][Sar]-NH2
modifications: disulfide 2-7 (inferred); reading uncertain; also: printed as MeCO-r-Pen(3)-K(PEG2PEG2gEC18OH)-T-7MeW-K(NMecPEG3a)-Pen(3)-AEF-2Nal-THP-E-N-3Pya-Sar-CONH2
B8: SEQ ID NO: 102 (peptide)
peptide: XNTXXXXXXXNXXK
modifications: MeCO-Pen(3)-N-T-7MeW-K(Ac)-Pen(3)-AEF-2Nal-THP-K(Ac)-N-3Pya-Sar-K(PEG12gEC18OH)-CONH2
B9: SEQ ID NO: 101 (peptide)
peptide: XNTXXXXXXXNXXK
modifications: MeCO-Pen(3)-N-T-7MeW-K(Ac)-Pen(3)-AEF-2Nal-THP-K(Ac)-N-3Pya-Sar-K(PEG12gEC20OH)-CONH2

*1 amine or outer side, *2 acyl side, *3 side chain or, on linkers, in order; H or OH if unused. Bridges are numbered along the chain shown (N, C = ends). Primed or numbered codes have the meaning given here. Side-chain parts run from the residue outwards. [ ]: non-standard residue; d: D form. K(d) = (2R)-2-(4-((5-amino-5-carboxypentyl)amino)-4-oxobutanamido)-3-carboxy-N,N,N-trimethylpropan-1-aminium, C[N+](C)(C)C[C@@H](CC(=O)[*:3])NC(=O)CCC(=O)NCCCC[C@H](N[*:1])C(=O)[*:2]; TMAPF = 5-(4-(2-amino-2-carboxyethyl)phenoxy)-N,N,N-trimethylpentan-1-aminium, C[N+](C)(C)CCCCCOc1ccc(C[C@H](N[*:1])C(=O)[*:2])cc1; PEG2′ = PEG2 spacer unit (not further defined); Trp(7-Me) = Cc1cccc2c(C[C@H](N)C(=O)O)c[nH]c12; γGlu = O=C(O)[C@H](CCC(=O)[*:2])N[*:1]; 2Nal = N[C@@H](Cc1ccc2ccccc2c1)C(=O)O; AEF = NCCOc1ccc(C[C@H](N)C(=O)O)cc1; 3Pal = N[C@@H](Cc1cccnc1)C(=O)O; NMecPEG3a = not defined here; Pen = CC(C)(S)[C@H](N)C(=O)O; PEG12′ = not defined here; PEG2″ = PEG2 spacer unit; Thp = NC1(C(=O)O)CCOCC1; Sar = CNCC(=O)O

The target of the first assay is T1, interleukin-23 receptor (IL-23R) (UniProt Q5VWK5 24-629, limits assumed).
T1 sequence (looked up): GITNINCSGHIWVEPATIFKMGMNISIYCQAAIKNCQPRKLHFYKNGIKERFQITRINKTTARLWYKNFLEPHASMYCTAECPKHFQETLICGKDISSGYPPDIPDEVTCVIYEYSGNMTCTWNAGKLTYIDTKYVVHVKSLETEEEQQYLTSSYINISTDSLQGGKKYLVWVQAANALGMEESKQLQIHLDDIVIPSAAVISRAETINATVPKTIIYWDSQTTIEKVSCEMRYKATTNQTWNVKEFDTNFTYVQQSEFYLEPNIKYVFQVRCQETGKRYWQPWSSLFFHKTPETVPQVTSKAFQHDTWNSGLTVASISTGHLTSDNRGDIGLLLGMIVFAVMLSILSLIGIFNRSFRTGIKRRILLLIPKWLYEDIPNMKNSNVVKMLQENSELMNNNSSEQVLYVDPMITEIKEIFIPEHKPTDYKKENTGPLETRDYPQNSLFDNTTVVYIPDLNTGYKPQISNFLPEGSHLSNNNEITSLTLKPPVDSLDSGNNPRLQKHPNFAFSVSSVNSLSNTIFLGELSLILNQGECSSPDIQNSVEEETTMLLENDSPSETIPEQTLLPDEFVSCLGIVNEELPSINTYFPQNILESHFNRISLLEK
The experiment in a line: cell-based or functional assay.
Turning to B1, the “PBMC pSTAT3 IC50” value is less than 0.5 nM.

For the molecule Ac-[dR][Pen]K([PEG2″-PEG2″-γGlu-C18OH])T[Trp(7-Me)]K(Ac)[Pen][TMAPF][2Nal][Thp]EN[3Pal][Sar]-NH2 (disulfide 2-7 (inferred)) [SEQ ID NO: 75], the “PBMC pSTAT3 IC50” value was less than 0.5 nM.

Take B2: the “PBMC pSTAT3 IC50” value is less than 0.5 nM.

Turning to Ac-[dK]([PEG12′-γGlu-C18OH])[Pen]NT[Trp(7-Me)]K(Ac)[Pen][AEF][2Nal][Thp]EN[3Pal][Sar]-NH2 (disulfide 2-7 (inferred)) [SEQ ID NO: 117], the “PBMC pSTAT3 IC50” value is less than 0.5 nM.

Take B3: the “PBMC pSTAT3 IC50” value was less than 0.5 nM.

As to XNTXKXXXXENXX (MeCO-Pen(3)-N-T-7MeW-K(PEG12gEC18OH)-Pen(3)-AEF-2Nal-THP-E-N-3Pya-Sar-CONH2) [SEQ ID NO: 96], the “PBMC pSTAT3 IC50” value was less than 0.5 nM.

As to Ac-[dR][Pen]NT[Trp(7-Me)]K(Ac)[Pen][AEF]([PEG2′-PEG2′-γGlu-C18OH])[2Nal][Thp][K(d)]N[3Pal][Sar]-NH2 (disulfide 2-7 (inferred)) [SEQ ID NO: 9], the “PBMC pSTAT3 IC50” value was less than 0.5 nM.

In the case of B4, the “PBMC pSTAT3 IC50” value was less than 0.5 nM.

Take B5: the “PBMC pSTAT3 IC50” value was less than 0.5 nM.

For the molecule B6, the “PBMC pSTAT3 IC50” value was less than 0.5 nM.

Consider Ac-[dR][Pen]K([PEG12′-γGlu-C18OH])T[Trp(7-Me)]K(Ac)[Pen][AEF][2Nal][Thp]EN[3Pal][Sar]-NH2 (disulfide 2-7 (inferred)) [SEQ ID NO: 105], for which the “PBMC pSTAT3 IC50” value is less than 0.5 nM.

With Ac-[Pen]K([PEG12′-γGlu-C18OH])T[Trp(7-Me)]K(Ac)[Pen][AEF][2Nal][Thp]EN[3Pal][Sar]-NH2 (disulfide 1-6 (inferred)) [SEQ ID NO: 97], the “PBMC pSTAT3 IC50” value is less than 0.5 nM.

As for Ac-[dR][Pen]K([PEG12′-γGlu-C20OH])T[Trp(7-Me)]K(Ac)[Pen][AEF][2Nal][Thp]EN[3Pal][Sar]-NH2 (disulfide 2-7 (inferred)) [SEQ ID NO: 99], the “PBMC pSTAT3 IC50” value is less than 0.5 nM.

On to XNTXXXXXXKNXX (MeCO-Pen(3)-N-T-7MeW-K(Ac)-Pen(3)-AEF-2Nal-THP-K(PEG12gEC18OH)-N-3Pya-Sar-CONH2) [SEQ ID NO: 100], for which the “PBMC pSTAT3 IC50” value was less than 0.5 nM.

Turning to {HOC18-γGlu-PEG2″-PEG2″}-[dR][Pen]NT[Trp(7-Me)]K(Ac)[Pen][TMAPF][2Nal][Thp]EN[3Pal][Sar]-NH2 (disulfide 2-7 (inferred); not fully specified) [SEQ ID NO: 83], the “PBMC pSTAT3 IC50” value was less than 0.5 nM.

Turning to Ac-[dK]([PEG12′-γGlu-C18OH])[Pen]NT[Trp(7-Me)]K(Ac)[Pen][AEF][2Nal][Thp]K(Ac)N[3Pal][Sar]-NH2 (disulfide 2-7 (inferred)) [SEQ ID NO: 98], the “PBMC pSTAT3 IC50” value is less than 0.5 nM.

Turning to B7, the “PBMC pSTAT3 IC50” value is less than 0.5 nM.

For the molecule B8, the “PBMC pSTAT3 IC50” value was less than 0.5 nM.

Consider B9, for which the “PBMC pSTAT3 IC50” value is less than 0.5 nM.

The target of the next assay is T1, interleukin-23 receptor (IL-23R). Kind of assay: cell-based or functional assay. This is another data set of the same source.
In the case of B1, the “IC50, IL23R reporter assay” value is less than 50 nM.

Ac-[dR][Pen]K([PEG2″-PEG2″-γGlu-C18OH])T[Trp(7-Me)]K(Ac)[Pen][TMAPF][2Nal][Thp]EN[3Pal][Sar]-NH2 (disulfide 2-7 (inferred)) [SEQ ID NO: 75]: the “IC50, IL23R reporter assay” value is less than 50 nM.

Regarding B2, the “IC50, IL23R reporter assay” value is less than 50 nM.

Take Ac-[dK]([PEG12′-γGlu-C18OH])[Pen]NT[Trp(7-Me)]K(Ac)[Pen][AEF][2Nal][Thp]EN[3Pal][Sar]-NH2 (disulfide 2-7 (inferred)) [SEQ ID NO: 117]: the “IC50, IL23R reporter assay” value was less than 50 nM.

Take B3: the “IC50, IL23R reporter assay” value was less than 50 nM.

For the molecule XNTXKXXXXENXX (MeCO-Pen(3)-N-T-7MeW-K(PEG12gEC18OH)-Pen(3)-AEF-2Nal-THP-E-N-3Pya-Sar-CONH2) [SEQ ID NO: 96], the “IC50, IL23R reporter assay” value is less than 50 nM.

As for Ac-[dR][Pen]NT[Trp(7-Me)]K(Ac)[Pen][AEF]([PEG2′-PEG2′-γGlu-C18OH])[2Nal][Thp][K(d)]N[3Pal][Sar]-NH2 (disulfide 2-7 (inferred)) [SEQ ID NO: 9], the “IC50, IL23R reporter assay” value is less than 50 nM.

For B4, the “IC50, IL23R reporter assay” value is less than 50 nM.

Turning to B5, the “IC50, IL23R reporter assay” value is less than 50 nM.

Consider B6, for which the “IC50, IL23R reporter assay” value was less than 50 nM.

For Ac-[dR][Pen]K([PEG12′-γGlu-C18OH])T[Trp(7-Me)]K(Ac)[Pen][AEF][2Nal][Thp]EN[3Pal][Sar]-NH2 (disulfide 2-7 (inferred)) [SEQ ID NO: 105], the “IC50, IL23R reporter assay” value was less than 50 nM.

As to Ac-[Pen]K([PEG12′-γGlu-C18OH])T[Trp(7-Me)]K(Ac)[Pen][AEF][2Nal][Thp]EN[3Pal][Sar]-NH2 (disulfide 1-6 (inferred)) [SEQ ID NO: 97], the “IC50, IL23R reporter assay” value is less than 50 nM.

As to Ac-[dR][Pen]K([PEG12′-γGlu-C20OH])T[Trp(7-Me)]K(Ac)[Pen][AEF][2Nal][Thp]EN[3Pal][Sar]-NH2 (disulfide 2-7 (inferred)) [SEQ ID NO: 99], the “IC50, IL23R reporter assay” value was less than 50 nM.

For the molecule XNTXXXXXXKNXX (MeCO-Pen(3)-N-T-7MeW-K(Ac)-Pen(3)-AEF-2Nal-THP-K(PEG12gEC18OH)-N-3Pya-Sar-CONH2) [SEQ ID NO: 100], the “IC50, IL23R reporter assay” value was less than 50 nM.

Consider {HOC18-γGlu-PEG2″-PEG2″}-[dR][Pen]NT[Trp(7-Me)]K(Ac)[Pen][TMAPF][2Nal][Thp]EN[3Pal][Sar]-NH2 (disulfide 2-7 (inferred); not fully specified) [SEQ ID NO: 83], for which the “IC50, IL23R reporter assay” value is less than 50 nM.

Regarding Ac-[dK]([PEG12′-γGlu-C18OH])[Pen]NT[Trp(7-Me)]K(Ac)[Pen][AEF][2Nal][Thp]K(Ac)N[3Pal][Sar]-NH2 (disulfide 2-7 (inferred)) [SEQ ID NO: 98], the “IC50, IL23R reporter assay” value is less than 50 nM.

In the case of B7, the “IC50, IL23R reporter assay” value is less than 50 nM.

For B8, the “IC50, IL23R reporter assay” value was less than 50 nM.

Consider B9, for which the “IC50, IL23R reporter assay” value was less than 50 nM.
